Source: IntAct's records for PubMed 32296183

B1: Very-long-chain enoyl-CoA reductase (Homo sapiens), Q9NZ01 (parent)
chain: MKHYEVEILDAKTREKLCFLDKVEPHATIAEIKNLFTKTHPQWYPARQSLRLDPKGKSLKDEDVLQKLPVGTTATLYFRDLGAQISWVTVFLTEYAGPLFIYLLFYFRVPFIYGHKYDFTSSRHTVVHLACICHSFHYIKRLLETLFVHRFSHGTMPLRNIFKNCTYYWGFAAWMAYYINHPLYTPPTYGAQQVKLALAIFVICQLGNFSIHMALRDLRPAGSKTRKIPYPTKNPFTWLFLLVSCPNYTYEVGSWIGFAIMTQCLPVALFSLVGFTQMTIWAKGKHRSYLKEFRDYPPLRMPIIPFLL
partner: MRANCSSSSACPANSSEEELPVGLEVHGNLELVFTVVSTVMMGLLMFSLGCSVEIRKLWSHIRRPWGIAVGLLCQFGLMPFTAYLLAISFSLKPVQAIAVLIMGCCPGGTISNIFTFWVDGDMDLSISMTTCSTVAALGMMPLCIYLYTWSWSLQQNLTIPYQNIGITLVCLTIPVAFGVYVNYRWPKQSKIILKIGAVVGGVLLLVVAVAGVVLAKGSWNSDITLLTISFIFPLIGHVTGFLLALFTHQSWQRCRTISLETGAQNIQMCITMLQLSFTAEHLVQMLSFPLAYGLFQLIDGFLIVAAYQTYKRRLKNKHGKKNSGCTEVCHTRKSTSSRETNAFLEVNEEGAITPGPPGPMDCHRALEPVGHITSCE
B2: Ceroid-lipofuscinosis neuronal protein 6 (Homo sapiens), Q9NWW5 (parent)
chain: MEATRRRQHLGATGGPGAQLGASFLQARHGSVSADEAARTAPFHLDLWFYFTLQNWVLDFGRPIAMLVFPLEWFPLNKPSVGDYFHMAYNVITPFLLLKLIERSPRTLPRSITYVSIIIFIMGASIHLVGDSVNHRLLFSGYQHHLSVRENPIIKNLKPETLIDSFELLYYYDEYLGHCMWYIPFFLILFMYFSGCFTASKAESLIPGPALLLVAPSGLYYWYLVTEGQIFILFIFTFFAMLALVLHQKRKRLFLDSNGLFLFSSFALTLLLVALWVAWLWNDPVLRKKYPGVIYVPEPWAFYTLHVSSRH
partner: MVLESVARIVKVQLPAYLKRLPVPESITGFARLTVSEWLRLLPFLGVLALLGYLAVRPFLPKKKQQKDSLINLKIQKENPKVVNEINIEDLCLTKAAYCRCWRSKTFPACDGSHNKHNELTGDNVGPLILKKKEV
B3: Golgi SNAP receptor complex member 2 (Homo sapiens), O14653 (parent)
chain: MDPLFQQTHKQVHEIQSCMGRLETADKQSVHIVENEIQASIDQIFSRLERLEILSSKEPPNKRQNARLRVDQLKYDVQHLQTALRNFQHRRHAREQQERQREELLSRTFTTNDSDTTIPMDESLQFNSSLQKVHNGMDDLILDGHNILDGLRTQRLTLKGTQKKILDIANMLGLSNTVMRLIEKRAFQDKYFMIGGMLLTCVVMFLVVQYLT
partner: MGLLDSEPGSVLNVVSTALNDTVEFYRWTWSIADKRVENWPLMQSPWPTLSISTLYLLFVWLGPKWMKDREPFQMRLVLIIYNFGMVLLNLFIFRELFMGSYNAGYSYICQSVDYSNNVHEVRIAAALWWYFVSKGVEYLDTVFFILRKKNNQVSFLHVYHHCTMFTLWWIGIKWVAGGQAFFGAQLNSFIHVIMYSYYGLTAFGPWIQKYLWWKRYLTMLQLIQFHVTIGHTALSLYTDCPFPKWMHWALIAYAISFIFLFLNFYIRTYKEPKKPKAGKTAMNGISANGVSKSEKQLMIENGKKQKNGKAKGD
B4: Ceroid-lipofuscinosis neuronal protein 6 (Homo sapiens), Q9NWW5 (parent)
chain: B2 chain
partner: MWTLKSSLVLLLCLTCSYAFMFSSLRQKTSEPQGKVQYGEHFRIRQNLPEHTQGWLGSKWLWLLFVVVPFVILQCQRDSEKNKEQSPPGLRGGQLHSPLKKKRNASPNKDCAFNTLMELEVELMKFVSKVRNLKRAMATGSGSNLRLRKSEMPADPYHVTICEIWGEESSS
B5: Ceroid-lipofuscinosis neuronal protein 6 (Homo sapiens), Q9NWW5 (parent)
chain: B2 chain
partner: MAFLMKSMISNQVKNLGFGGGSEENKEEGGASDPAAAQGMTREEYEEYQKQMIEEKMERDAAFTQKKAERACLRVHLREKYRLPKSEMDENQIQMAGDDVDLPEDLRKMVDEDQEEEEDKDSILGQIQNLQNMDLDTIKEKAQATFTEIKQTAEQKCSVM

Variants of: B1
Details: with soat_human SLC10A6, Q3KNW5

Variant | effect of a mutation on the interaction
MKHYEVEILDAKTREKLCFLDKVEPHATIAEIKNLFTKTHPQWYPARQSLRLDPKGKSLKDEDVLQKLPVGTTATLYFRDLGAQISWVTVFLTEYAGPLFIYLLFYFRVPFIYGHKYDFTSSRHTVVHLACICHSFHYIKRLLETLFVHRFSHGTMPLRNIFKNCTYYWGFAAWMAYYINHLLYTPPTYGAQQVKLALAIFVICQLGNFSIHMALRDLRPAGSKTRKIPYPTKNPFTWLFLLVSCPNYTYEVGSWIGFAIMTQCLPVALFSLVGFTQMTIWAKGKHRSYLKEFRDYPPLRMPIIPFLL [P182L] | with no effect

Variants of: B2
Details: with cisd2_human CISD2, Q8N5K1

Variant | effect of a mutation on the interaction
MEATRRRQHLGATGGPGAQLGASFLQARHGSVSADEAARTAPFHLDLWFYFTLQNWVLDFGRPIAMLVFPLEWFPLNKPSVGDYFHMAYNVITPFLLLKLIERSPRTLPRSITYVSIIIFIMDASIHLVGDSVNHRLLFSGYQHHLSVRENPIIKNLKPETLIDSFELLYYYDEYLGHCMWYIPFFLILFMYFSGCFTASKAESLIPGPALLLVAPSGLYYWYLVTEGQIFILFIFTFFAMLALVLHQKRKRLFLDSNGLFLFSSFALTLLLVALWVAWLWNDPVLRKKYPGVIYVPEPWAFYTLHVSSRH [G123D] | with no effect
MEATRRRQHLGATGGPGAQLGASFLQARHGSVSADEAARTAPFHLDFWFYFTLQNWVLDFGRPIAMLVFPLEWFPLNKPSVGDYFHMAYNVITPFLLLKLIERSPRTLPRSITYVSIIIFIMGASIHLVGDSVNHRLLFSGYQHHLSVRENPIIKNLKPETLIDSFELLYYYDEYLGHCMWYIPFFLILFMYFSGCFTASKAESLIPGPALLLVAPSGLYYWYLVTEGQIFILFIFTFFAMLALVLHQKRKRLFLDSNGLFLFSSFALTLLLVALWVAWLWNDPVLRKKYPGVIYVPEPWAFYTLHVSSRH [L47F] | with no effect
MEATRTRQHLGATGGPGAQLGASFLQARHGSVSADEAARTAPFHLDLWFYFTLQNWVLDFGRPIAMLVFPLEWFPLNKPSVGDYFHMAYNVITPFLLLKLIERSPRTLPRSITYVSIIIFIMGASIHLVGDSVNHRLLFSGYQHHLSVRENPIIKNLKPETLIDSFELLYYYDEYLGHCMWYIPFFLILFMYFSGCFTASKAESLIPGPALLLVAPSGLYYWYLVTEGQIFILFIFTFFAMLALVLHQKRKRLFLDSNGLFLFSSFALTLLLVALWVAWLWNDPVLRKKYPGVIYVPEPWAFYTLHVSSRH [R6T] | with no effect

Variants of: B3
Details: with elov4_human ELOVL4, Q9GZR5

Variant | effect of a mutation on the interaction
MDPLFQQTHKQVHEIQSCMGRLETADKQSVHIVENEIQASIDQIFSRLERLEILSSKEPPNKRQNARLRVDQLKYDVQHLQTALRNFQHRRHAREQQERQREELLSRTFTTNDSDTTIPMDESLQFNSSLQKVHNGMDDLILDWHNILDGLRTQRLTLKGTQKKILDIANMLGLSNTVMRLIEKRAFQDKYFMIGGMLLTCVVMFLVVQYLT [G144W] | with no effect

Variants of: B4
Details: with FAM209A

Variant | effect of a mutation on the interaction
MEATRRRQHLGATGGPGAQLGASFLQARHGSVSADEAARTAPFHLDLWFYFTLQNWVLDFGRPIAMLVFPLEWFPLNKPSVGDYFHMAYNVITPFLLLKLIERSPRTLPRSITYVSIIIFIMDASIHLVGDSVNHRLLFSGYQHHLSVRENPIIKNLKPETLIDSFELLYYYDEYLGHCMWYIPFFLILFMYFSGCFTASKAESLIPGPALLLVAPSGLYYWYLVTEGQIFILFIFTFFAMLALVLHQKRKRLFLDSNGLFLFSSFALTLLLVALWVAWLWNDPVLRKKYPGVIYVPEPWAFYTLHVSSRH [G123D] | with no effect
MEATRRRQHLGATGGPGAQLGASFLQARHGSVSADEAARTAPFHLDFWFYFTLQNWVLDFGRPIAMLVFPLEWFPLNKPSVGDYFHMAYNVITPFLLLKLIERSPRTLPRSITYVSIIIFIMGASIHLVGDSVNHRLLFSGYQHHLSVRENPIIKNLKPETLIDSFELLYYYDEYLGHCMWYIPFFLILFMYFSGCFTASKAESLIPGPALLLVAPSGLYYWYLVTEGQIFILFIFTFFAMLALVLHQKRKRLFLDSNGLFLFSSFALTLLLVALWVAWLWNDPVLRKKYPGVIYVPEPWAFYTLHVSSRH [L47F] | with no effect

Variants of: B5
Details: with cplx4_human CPLX4, Q7Z7G2

Variant | effect of a mutation on the interaction
MEATRTRQHLGATGGPGAQLGASFLQARHGSVSADEAARTAPFHLDLWFYFTLQNWVLDFGRPIAMLVFPLEWFPLNKPSVGDYFHMAYNVITPFLLLKLIERSPRTLPRSITYVSIIIFIMGASIHLVGDSVNHRLLFSGYQHHLSVRENPIIKNLKPETLIDSFELLYYYDEYLGHCMWYIPFFLILFMYFSGCFTASKAESLIPGPALLLVAPSGLYYWYLVTEGQIFILFIFTFFAMLALVLHQKRKRLFLDSNGLFLFSSFALTLLLVALWVAWLWNDPVLRKKYPGVIYVPEPWAFYTLHVSSRH [R6T] | with no effect
MEATRRRQHLGATGGPGAQLGASFLQARHGSVSADEAARTAPFHLDFWFYFTLQNWVLDFGRPIAMLVFPLEWFPLNKPSVGDYFHMAYNVITPFLLLKLIERSPRTLPRSITYVSIIIFIMGASIHLVGDSVNHRLLFSGYQHHLSVRENPIIKNLKPETLIDSFELLYYYDEYLGHCMWYIPFFLILFMYFSGCFTASKAESLIPGPALLLVAPSGLYYWYLVTEGQIFILFIFTFFAMLALVLHQKRKRLFLDSNGLFLFSSFALTLLLVALWVAWLWNDPVLRKKYPGVIYVPEPWAFYTLHVSSRH [L47F] | with no effect
MEATRRRQHLGATGGPGAQLGASFLQARHGSVSADEAARTAPFHLDLWFYFTLQNWVLDFGRPIAMLVFPLEWFPLNKPSVGDYFHMAYNVITPFLLLKLIERSPRTLPRSITYVSIIIFIMDASIHLVGDSVNHRLLFSGYQHHLSVRENPIIKNLKPETLIDSFELLYYYDEYLGHCMWYIPFFLILFMYFSGCFTASKAESLIPGPALLLVAPSGLYYWYLVTEGQIFILFIFTFFAMLALVLHQKRKRLFLDSNGLFLFSSFALTLLLVALWVAWLWNDPVLRKKYPGVIYVPEPWAFYTLHVSSRH [G123D] | with no effect
